From the supplement of paper PMC10567573

B1: ATL3 (parent)
chain: EKALASILLQDHIRDLDVVVVSVA

Variants of: B1
Assay: protein stability index of a GFP-peptide fusion (GPS, HEK-293T) (PSI 1-6); higher = more stable
Conditions: c terminus: a fixed tail appended
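Also: lentivirally expressed fusions sorted by FACS into six bins by GFP to DsRed ratio, PSI derived from sequencing read proportions per bin multiplied by bin number.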

Variant	protein stability index
EKALASILLQDHIRDLDVVVVDVA	2.35
EKALASILLQDHIRDLDVVVVRVA	2.97
EKALASILLQDHIRDLDVVVVPVA	1.91
EKALASILLQDHITDLDVVVVSVA	1.49
EKALASILLQDHIKDLDVVVVSVA	3.11
EKALASILLQDHIPDLDVVVVSVA	1.55
EKALASILLQDHIDDLDVVVVSVA	2.15
EKALASILLQDHIWDLDVVVVSVA	3.58
EKALASILLQDHIFDLDVVVVSVA	3.13
EKALASILLQDHINDLDVVVVSVA	3.67
EKALASILLQDHILDLDVVVVSVA	3.36
IKALASILLQDHIRDLDVVVVSVA	2.5
NKALASILLQDHIRDLDVVVVSVA	2.93
RKALASILLQDHIRDLDVVVVSVA	2.24
HKALASILLQDHIRDLDVVVVSVA	2.05
CKALASILLQDHIRDLDVVVVSVA	3.34
GKALASILLQDHIRDLDVVVVSVA	3.59
EKALASILLQDHIRDLDVVVVSKA	2.38
EKALASILLQDHIRDLDVVVVSDA	3.01
EKALASILLQDHIRDLDVVVVSHA	1.19
EKALASILLQDHIRDLDVVVVSGA	3.31
EKALASILLQDHIRDLDVVVVSAA	2.21
EKALASILLQDHIRDLDVVVVSFA	3.83
EKALASILLQDHIRDLDVVVVSLA	2.76

Variant	protein stability index
EKALASILLQDHIRDLDVVVVSSA	3.22
EKALASILLQDHIRDLDVVVVSQA	1.96
EKALASILLQDHIRDLDVVVVSPA	2.45
EKALASILLQDHIRDLDVVVVSNA	2.32
EKALASILLQDHIRDLDVVVVSRA	1.41
EKALASILLQDHIRDLDVVVVSVN	2.01
EKALASILLQDHIRDLDVVVVSVG	2.39
EKALASILLQDHIRDLDVVVVSVP	2.53
EKALASILLQDHIRDLDVVVVSVM	1.8
EKALASILLQDHIRDLDVVVVSVC	4.82
EKALNSILLQDHIRDLDVVVVSVA	3.63
EKALQSILLQDHIRDLDVVVVSVA	3.29
EKALESILLQDHIRDLDVVVVSVA	2.29
EKALWSILLQDHIRDLDVVVVSVA	2.08
EKALVSILLQDHIRDLDVVVVSVA	2.9
EKALKSILLQDHIRDLDVVVVSVA	1.74
EKALHSILLQDHIRDLDVVVVSVA	1.35
EKALTSILLQDHIRDLDVVVVSVA	2.26
EKAHASILLQDHIRDLDVVVVSVA	1.05
EKADASILLQDHIRDLDVVVVSVA	2.61
EKAQASILLQDHIRDLDVVVVSVA	1.69
EKATASILLQDHIRDLDVVVVSVA	1.37
EKAAASILLQDHIRDLDVVVVSVA	1.45
EKAYASILLQDHIRDLDVVVVSVA	1.83

Variant	protein stability index
EKAKASILLQDHIRDLDVVVVSVA	3.04
EKACASILLQDHIRDLDVVVVSVA	1.47
EKAVASILLQDHIRDLDVVVVSVA	3.38
EKAEASILLQDHIRDLDVVVVSVA	1.39
EKAPASILLQDHIRDLDVVVVSVA	1.25
EKALASIALQDHIRDLDVVVVSVA	2.99
EKALASIGLQDHIRDLDVVVVSVA	2.62
EKALASIQLQDHIRDLDVVVVSVA	2.63
EKALASIILQDHIRDLDVVVVSVA	2.89
EKALASITLQDHIRDLDVVVVSVA	1.55
EKALASIELQDHIRDLDVVVVSVA	1.98
EKALASIWLQDHIRDLDVVVVSVA	3.89
EKALASIPLQDHIRDLDVVVVSVA	2.34
EKALASIKLQDHIRDLDVVVVSVA	1.14
EKALASINLQDHIRDLDVVVVSVA	1.04
EKALASILLQDHIRDLPVVVVSVA	2.93
EKALASILLQDHIRDLAVVVVSVA	3.11
EKALASILLQDHIRDLQVVVVSVA	1.93
EKALASILLQDHIRDLMVVVVSVA	2.05
EKALASILLQDHIRDLIVVVVSVA	1.36
EKALASILLQDHIRDLYVVVVSVA	3.45
EKELASILLQDHIRDLDVVVVSVA	1.51
EKYLASILLQDHIRDLDVVVVSVA	1.09
EKALASILLQDHIRDLDVVVISVA	2.63

Variant	protein stability index
EKALASILLQDHIRDLDVVVQSVA	2.6
EKALASILLQDHIRDLDVVVHSVA	1.51
EKALASILLQDHIRDLDVVVRSVA	3.63
EKALASILLQDHIRDLDVVVNSVA	2.16
EKALASILLQDHIRDLDVVVPSVA	2.56
EKALASILLQDHIRDLDVVVDSVA	3.39
EKALASILLQDHIRDLDVVVYSVA	1.75
EKALASILLQDHIRDLDVVVTSVA	1.62
EKALASILLQDHIRDLDVVVASVA	1.16
EKALASILLQDHIRDLDVVVSSVA	1.81
EKALASILLQDHIRDLDVVVCSVA	2.07
EKALASILLQDHIRDLDHVVVSVA	1.06
EKALASILLQDHIRDLDTVVVSVA	3.46
EKALASILLQDHIRDLDYVVVSVA	3.61
EKALASILLQDHIRDLDEVVVSVA	2.48
EKALASILLQDHIRDLDNVVVSVA	2
EKALASILLQDHIRDLDPVVVSVA	2.34
EKALASILLQDHIRDLDKVVVSVA	2.27
EKALASILLQDHIRDLDIVVVSVA	2.02
EKALASILLQDHIRDLDCVVVSVA	1.66
EKALASILLQDHIRDLDQVVVSVA	1.59
EKALASILLQDHIRDLDDVVVSVA	2.74
